Results as given in PMC9640981, “Plant vernalization proteins contain unusual PHD superdomains without histone H3 binding activity” (The Journal of Biological Chemistry, 2022).

Target: Arabidopsis thaliana (At) OBE1_(193-372), PHD superdomain of OBERON 1 (A. thaliana) (UniProt Q9S736)
Assay: ITC; 25 °C, iTC 200; 25 mM Tris pH 8, 150 mM NaCl, 1 mM DTT; 19 injections of 2 μl of 0.25 to 1 mM peptide into 50 μM protein

Kd: 1900 nM
Substance: H3K4me2 (1–15) histone H3 tail peptide (from UniProt P68431 2-16)
